# In patent US8916149B2, “Preventing and treating sepsis” (University of Rochester, priority 2008, dated 2014):
# B1: rhAPC: Recombinant human activated protein C obtained from Eli Lilly; FDA-approved drug for severe sepsis (protein)
# chain 1: ANSFLEELRHSSLERECIEEICDFEEAKEIFQNVDDTLAFWSKHVDGDQCLVLPLEHPCASLCCGHGTCIDGIGSFSCDCRSGWEGRFCQREVSFLNCSLDNGGCTHYCLEEVGWRRCSCAPGYKLGDDLLQCHPAVKFPCGRPWKRMEKKRSHL
# chain 2: LIDGKMTRRGDSPWQVVLLDSKKKLACGAVLIHPSWVLTAAHCMDESKKLLVRLGEYDLRRWEKWELDLDIKEVFVHPNYSKSTTDNDIALLHLAQPATLSQTIVPICLPDSGLAERELNQAGQETLVTGWGYHSSREKEAKRNRTFVLNFIKIPVVPHNECSEVMSNMVSENMLCAGILGDRQDACEGDSGGPMVASFHGTWFLVGLVSWGEGCGLLHNYGVYTKVSRYLDWIHGHIRDKEAPQKSWAP
# Legend:
# human neutrophils [1] = assay: Micropipette assay (directional migration toward fMLP tip); format: cell-based
# Method: Delta T dishes were coated with human FN (50 μg/ml, BD Biosciences, San Jose, Calif.) for overnight at 4° C. and then for 4 h at room temperature. Plates were then rinsed with L-15 media. […] The cells were then added to FN-coated dishes in 1.5 ml of L-15 with 2 mg/ml of glucose. For neutrophil live cell staining, 2 μM Green Cell Tracker CMFDA (5-chloromethylfluorescein diacetate; Molecular Probes, Carlsbad, Calif.) was used. Temperature was maintained at 37° C. throughout the experiment using a FCS2 live-cell imaging chamber (Bioptechs, Butler, Pa.). Images were acquired for 30 to 60 minutes under a 10× objective lens using a Nikon TE-2000U inverted microscope. Phase contrast images were acquired every 5 seconds and fluorescence images every 30 seconds. Cell paths were traced using MetaVue™ imaging software (Molecular Devices Corporation, Downingtown, Pa.).
# Directional migration was investigated using a micropipette assay to analyze the dynamics of neutrophil migration on different integrin ligands. Sterile Femtotips II micropipette tips (Eppendorf, Westbury, N.Y.) were loaded with 5 μl of 1 μM fMLP and then placed on the bottom of FN-coated delta T dishes that had been pre-warmed to 37° C. Image acquisition began within 2 minutes of tip placement.
# The time-lapsed images of migrating neutrophils were taken under phase contrast microscopy. Each image was thresholded and binarized based on brightness to define the centroids of the neutrophils. The closest centroids between consecutive images were linked as a trajectory under the assumption that these centroids were made by the same neutrophil. The maximum distance between the closest centroids was also defined to preclude the artifacts due to cells moving into and out of the field of view.
# human neutrophils [2] = assay: rhAPC binding to neutrophils in suspension (chromogenic substrate S-2366); details: 1 mM Ca2+ and 1 mM Mg2+ supplemented with 1 mM Mn2+
# Method: Control (PBS) or rhAPC-treated neutrophils were incubated with the indicated concentrations of MgCl2 and CaCl2. The LIBS of β1 and β3 integrins were detected by B44 and D3 mAb, respectively. *P<0.05 vs. PBS treated cells. […] Experiments were repeated on neutrophil preparations from three independent donors. In FIGS. 2A, 2C, 2D, 2E, and 2F, results are expressed as mean±SEM of three independent experiments.
# The best characterized integrin binding motif is the RGD sequence, which is present in FN, fibrinogen, von Willebrand factor, vitronectin, and a variety of other adhesion proteins. Many integrins that bind to extracellular protein ligands including α3β1, α5β1, αIIbβ3, and αVβ3, specifically interact with the RGD sequence of their target proteins. […] To test this hypothesis, rhAPC-binding assays were performed with neutrophils in suspension. The assay buffer containing 1 mM Ca^2+ and 1 mM Mg^2+ was supplemented with 1 mM Mn^2+ to activate cell surface integrins.
# α5β1 = molecular target: T1, α5β1 (Homo sapiens, UniProt P05556+P08648); assay: Solid phase integrin ligand binding assay; details: 1 mM Mn2+, 1 mM Ca2+, 1 mM Mg2+
# T1 construct: purchased US Biological, Swampscott, Mass
# T1 sequence (P08648 42-894 limits assumed): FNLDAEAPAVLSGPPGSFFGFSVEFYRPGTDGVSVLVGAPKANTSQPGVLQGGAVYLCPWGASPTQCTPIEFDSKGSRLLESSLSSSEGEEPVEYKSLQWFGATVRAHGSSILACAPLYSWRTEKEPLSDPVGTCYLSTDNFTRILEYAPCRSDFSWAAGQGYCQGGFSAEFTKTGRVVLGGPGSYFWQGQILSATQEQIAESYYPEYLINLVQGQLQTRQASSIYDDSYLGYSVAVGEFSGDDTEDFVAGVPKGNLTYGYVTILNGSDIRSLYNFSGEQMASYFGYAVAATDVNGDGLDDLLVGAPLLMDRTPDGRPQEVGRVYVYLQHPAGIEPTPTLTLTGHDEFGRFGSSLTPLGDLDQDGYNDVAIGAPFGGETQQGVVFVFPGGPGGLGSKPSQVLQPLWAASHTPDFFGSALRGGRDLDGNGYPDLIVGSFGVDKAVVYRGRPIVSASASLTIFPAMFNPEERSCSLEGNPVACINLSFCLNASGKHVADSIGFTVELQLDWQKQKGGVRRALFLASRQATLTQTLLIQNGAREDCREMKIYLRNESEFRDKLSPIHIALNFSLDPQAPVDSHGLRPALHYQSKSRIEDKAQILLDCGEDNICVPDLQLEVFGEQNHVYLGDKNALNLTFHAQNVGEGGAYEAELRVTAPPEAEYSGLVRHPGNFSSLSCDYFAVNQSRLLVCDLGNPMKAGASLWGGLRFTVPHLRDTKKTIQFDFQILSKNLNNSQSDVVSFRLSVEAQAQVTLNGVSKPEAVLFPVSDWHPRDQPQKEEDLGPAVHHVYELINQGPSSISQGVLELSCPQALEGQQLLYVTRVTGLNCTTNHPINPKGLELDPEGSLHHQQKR
# T1 sequence (P08648 895-1049 partner limits assumed): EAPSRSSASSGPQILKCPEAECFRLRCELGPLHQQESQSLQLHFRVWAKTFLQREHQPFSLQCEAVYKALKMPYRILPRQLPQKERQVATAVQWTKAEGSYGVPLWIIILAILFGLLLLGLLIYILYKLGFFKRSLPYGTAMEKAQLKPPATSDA
# T1 sequence (P05556 21-798): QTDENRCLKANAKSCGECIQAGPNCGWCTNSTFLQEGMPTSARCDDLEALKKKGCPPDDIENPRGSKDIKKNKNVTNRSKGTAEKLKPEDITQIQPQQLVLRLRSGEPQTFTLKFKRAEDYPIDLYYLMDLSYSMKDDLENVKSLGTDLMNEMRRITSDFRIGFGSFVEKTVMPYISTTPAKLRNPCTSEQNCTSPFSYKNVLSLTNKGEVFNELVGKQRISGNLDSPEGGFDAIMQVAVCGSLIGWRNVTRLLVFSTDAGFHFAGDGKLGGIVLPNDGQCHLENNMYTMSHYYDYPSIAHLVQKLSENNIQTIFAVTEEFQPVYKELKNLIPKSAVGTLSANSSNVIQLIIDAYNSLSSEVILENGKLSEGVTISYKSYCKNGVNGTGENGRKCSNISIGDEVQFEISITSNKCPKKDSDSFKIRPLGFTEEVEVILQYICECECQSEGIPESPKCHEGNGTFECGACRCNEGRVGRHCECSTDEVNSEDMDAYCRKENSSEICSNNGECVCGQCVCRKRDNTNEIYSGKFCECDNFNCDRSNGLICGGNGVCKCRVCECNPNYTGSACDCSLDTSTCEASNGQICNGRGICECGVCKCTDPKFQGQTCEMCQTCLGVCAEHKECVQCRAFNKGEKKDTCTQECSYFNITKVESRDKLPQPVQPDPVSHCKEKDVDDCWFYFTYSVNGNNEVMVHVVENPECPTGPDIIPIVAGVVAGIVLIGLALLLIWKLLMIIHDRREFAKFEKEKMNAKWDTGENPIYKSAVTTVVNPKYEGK
# Method: (§1) The solid phase binding assay was performed using purified soluble human α3β1, α5β1, and αVβ3 (US Biological, Swampscott, Mass.). Two (2) μg/ml of soluble integrins were added to microtiter wells for capture with immobilized monoclonal antibody against β1 or β3 subunits (mAb TS2/6 for β1 and mAb BB10 (Chemicon, Temecula, Calif.) for β3 integrins). […] After washing, bound APC was chromogenically detected by peroxidase-streptavidin conjugate anti-PC (Diapharma, West Chester, Ohio) or chromogenic substrate S-2366 (Diapharma, West Chester, Ohio). To minimize dissociation, all wash buffers contained 1 mM Mn^2+, and <15 minutes elapsed between the end of binding and beginning of color development. Functional blocking antibodies for integrins were from Chemicon (Temecula, Calif.).
# (§2) Among the neutrophil integrins that recognize the RGD motif, α3β1, α5β1, and αVβ3 are key in regulating neutrophil chemotaxis (Yauch et al., Mol. Biol. Cell 9:2751 (1998); Burns et al., J. Immunol. 166:4644 (2001); Sixt et al., J. Biol. Chem. 276:18878 (2001)). To test whether APC can bind directly to the integrins, an ELISA-like solid phase receptor-binding assay was performed (FIG. 2E). Soluble α3β1, α5β1, and αVβ3 were captured onto microtiter wells using mAbs specific for β1 or β3.
# αVβ3 = molecular target: T2, αVβ3 (Homo sapiens, UniProt P05106+P06756); assay: Solid phase integrin ligand binding assay; details: 1 mM Mn2+, 1 mM Ca2+, 1 mM Mg2+
# T2 construct: purchased US Biological, Swampscott, Mass
# T2 sequence (P06756 31-889 limits assumed): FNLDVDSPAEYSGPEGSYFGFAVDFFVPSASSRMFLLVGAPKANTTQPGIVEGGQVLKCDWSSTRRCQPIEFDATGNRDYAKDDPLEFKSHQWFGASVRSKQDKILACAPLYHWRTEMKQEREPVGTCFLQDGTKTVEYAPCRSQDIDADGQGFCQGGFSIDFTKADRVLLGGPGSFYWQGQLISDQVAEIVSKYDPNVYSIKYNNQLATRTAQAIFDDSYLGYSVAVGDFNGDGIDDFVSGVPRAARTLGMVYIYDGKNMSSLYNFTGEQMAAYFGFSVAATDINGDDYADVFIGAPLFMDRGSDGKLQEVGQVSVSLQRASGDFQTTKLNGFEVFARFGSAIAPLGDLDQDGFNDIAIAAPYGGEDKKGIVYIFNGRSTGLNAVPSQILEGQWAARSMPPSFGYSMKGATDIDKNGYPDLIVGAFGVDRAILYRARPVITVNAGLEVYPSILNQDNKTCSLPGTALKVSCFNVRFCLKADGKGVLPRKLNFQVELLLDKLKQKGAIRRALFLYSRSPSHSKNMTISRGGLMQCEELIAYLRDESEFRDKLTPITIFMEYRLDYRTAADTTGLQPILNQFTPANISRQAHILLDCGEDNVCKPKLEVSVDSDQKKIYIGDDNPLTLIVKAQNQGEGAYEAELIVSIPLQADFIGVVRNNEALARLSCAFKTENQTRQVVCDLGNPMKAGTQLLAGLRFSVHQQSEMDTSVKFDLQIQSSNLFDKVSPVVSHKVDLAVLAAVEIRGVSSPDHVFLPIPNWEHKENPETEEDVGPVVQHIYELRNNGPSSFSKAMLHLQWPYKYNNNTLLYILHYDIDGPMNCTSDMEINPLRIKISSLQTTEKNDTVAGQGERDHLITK
# T2 sequence (P06756 891-1048 partner limits assumed): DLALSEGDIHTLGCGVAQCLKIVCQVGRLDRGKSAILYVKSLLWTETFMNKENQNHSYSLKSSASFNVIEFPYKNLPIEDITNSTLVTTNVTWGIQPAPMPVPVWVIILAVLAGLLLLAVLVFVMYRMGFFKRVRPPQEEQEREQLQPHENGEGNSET
# T2 sequence (P05106 27-788): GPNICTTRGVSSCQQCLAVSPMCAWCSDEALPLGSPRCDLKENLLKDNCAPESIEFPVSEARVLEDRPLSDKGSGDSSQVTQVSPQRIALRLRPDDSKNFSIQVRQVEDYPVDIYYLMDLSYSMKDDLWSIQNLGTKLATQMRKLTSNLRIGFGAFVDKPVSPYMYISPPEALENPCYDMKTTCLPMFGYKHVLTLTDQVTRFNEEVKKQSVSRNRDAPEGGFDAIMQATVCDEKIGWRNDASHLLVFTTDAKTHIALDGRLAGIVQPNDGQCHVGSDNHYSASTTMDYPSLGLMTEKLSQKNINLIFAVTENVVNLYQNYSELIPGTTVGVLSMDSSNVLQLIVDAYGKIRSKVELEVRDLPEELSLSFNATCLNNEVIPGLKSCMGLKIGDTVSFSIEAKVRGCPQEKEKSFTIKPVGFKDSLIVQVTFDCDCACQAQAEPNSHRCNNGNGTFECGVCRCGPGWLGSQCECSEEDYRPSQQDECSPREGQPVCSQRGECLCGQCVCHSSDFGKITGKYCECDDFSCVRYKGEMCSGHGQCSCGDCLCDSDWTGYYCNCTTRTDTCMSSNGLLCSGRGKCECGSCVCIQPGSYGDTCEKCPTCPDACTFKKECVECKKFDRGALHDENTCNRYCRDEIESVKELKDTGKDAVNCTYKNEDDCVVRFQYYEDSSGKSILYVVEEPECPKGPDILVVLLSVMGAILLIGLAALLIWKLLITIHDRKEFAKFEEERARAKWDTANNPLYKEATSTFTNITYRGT
# Method: as §1, §2
# [3] = test system: patients with severe sepsis; details: subset of patients; cited from earlier work
molecule,measurement,setting,value
B1,direction of movement,human neutrophils [1],without significantly altering
same,decrease of average lateral migration speed (S),human neutrophils [1]; over 30 neutrophils in each group,more than 2.5 fold
same,neutrophil migration on FN toward the fMLP tip,human neutrophils [1]; rhAPC pre-treatment,dramatically decreased
same,rhAPC binding to the neutrophil surface,human neutrophils [2],significantly increased
same,direct binding to soluble α5β1,α5β1,bound
same,direct binding to soluble αVβ3,αVβ3,bound
same,mortality in patients with severe sepsis,[3],significantly reduced
